Measurements: PMC3985653, “A bacteriophage transcription regulator inhibits bacterial transcription initiation by σ-factor displacement”

Experiments:
[1] = target: T1, P7-sensitive core RNA polymerase (P7SE; hybrid E. coli core with Xo beta' N-terminus NLFN);sigma70 (Escherichia coli (397c cells, …, UniProt P0A7Z4;P0A8V2;Q2NZX9;P0A800;P00579 1-329;1-1342;1-10+P0A8T7:11-1407;2-91;1-613, internal_change|); test: EMSA; no P7; heparin-resistant open complex; settings: protein: recombinant;recombinant; tags: C-6His on beta';N-6His-HMK in 32P-labelled experiments; unlabelled form purified separately; chain copies: 2;1;1;1;1; blunt
[2] = target: T1, P7-sensitive core RNA polymerase (P7SE; …); test: KMnO4 footprinting; settings: protein: recombinant;recombinant; tags: C-6His on beta';N-6His-HMK in 32P-labelled experiments; unlabelled form purified separately; chain copies: 2;1;1;1;1; label: 5'-32P on one strand; blunt

Row | Binder | binding result [1] | binding result [2]
1 | lacUV5 promoter [-64 to +36] (dsDNA) DNA 1: GTTAGCTCACTCATTAGGCACCCCAGGCTTTACACTTTATGCTTCCGGCTCGTATAATGTGTGGAATTGTGAGCGGATAACAATTTCACACAGGAAACAG DNA 2: CTGTTTCCTGTGTGAAATTGTTATCCGCTCACAATTCCACACATTATACGAGCCGGAAGCATAAAGTGTAAAGCCTGGGGTGCCTAATGAGTGAGCTAAC | binds | –
2 | T5 N25 promoter [-65 to +35] (dsDNA) DNA 1: TCTTTGCTCAAAGAATCATAAAAAATTTATTTGCTTTCAGGAAAATTTTTCTGTATAATAGATTCATAAATTTGAGAGAGGAGTTTAAATATGGCTGGTTC DNA 2: GAACCAGCCATATTTAAACTCCTCTCTCAAATTTATGAATCTATTATACAGAAAAATTTTCCTGAAAGCAAATAAATTTTTTATGATTCTTTGAGCAAAGA | – | binds
